In patent CN101357942A one finds affinity relative to parental mAb 1F2 and 对Stx2细胞毒作用的抑制率 (Vero cells, MTT) data, which are given here for 1 molecule.

Experiment [1] deals with 天然Stx2 (natural Shiga toxin II of enterohaemorrhagic E. coli O157:H7) (肠出血性大肠杆菌(EHEC) O157:H7) (UniProt P09385).
For experiment [2] the target is unchanged. Description: cell-based or functional assay.

UniProt P09385, sequence (P09385 23-319, chain 1 of 2): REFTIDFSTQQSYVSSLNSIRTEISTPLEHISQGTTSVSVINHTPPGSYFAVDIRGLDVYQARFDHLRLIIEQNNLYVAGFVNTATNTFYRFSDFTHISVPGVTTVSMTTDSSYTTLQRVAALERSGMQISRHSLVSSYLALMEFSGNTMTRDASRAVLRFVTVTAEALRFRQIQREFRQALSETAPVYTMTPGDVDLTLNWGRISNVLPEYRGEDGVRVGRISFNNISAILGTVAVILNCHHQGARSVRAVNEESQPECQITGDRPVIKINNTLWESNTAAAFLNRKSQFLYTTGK
UniProt P09385, sequence (P09386 20-89, chain 2 of 2, further chain): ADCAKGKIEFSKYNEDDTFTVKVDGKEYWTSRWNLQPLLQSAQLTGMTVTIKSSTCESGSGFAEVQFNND

B1: 1F2Fab抗体 (recombinant Fab of 1F2, expressed from Pcomb3X-1F2Fab in E. coli XL-blue) (Fab, V domains shown)
VH: SGGGLVQPGGSLKLSCAASGFTFSVYGMSWVRQTPDKRLELVATINNNGGSTYYPDSVKGRFTISRDNAKNTLYLQMSSLKSEDTAMYYCASIPLFGNYWGQGTSVTVSS
VL: MTQTPLSLPVSLGDQASISCRSSQSIVHSNGNTYLEWYLQKPGQSPKFLIYKVSRFSGVPDRFSGSGSGTDFTLKISRVEAEDLGVYYCFQGSHVPWTFGGGTKLEIKR
With B1, the affinity relative to parental mAb 1F2 in experiment [1] stood at 85%. The molecule further came in with a 对Stx2细胞毒作用的抑制率 (Vero cells, MTT) in experiment [2] of 83%.
